First the molecules themselves.
B1: H183/L072 VL A89M (antibody, name in Kabat numbering, V domains shown)
VH: QVQLVESGGGLVQPGRSLRLSCAASGFTFSNAWMHWVRQAPGKGLEWVAQIKDKGNAYAAYYAPSVKGRFTISRDDSKNSIYLQMNSLKTEDTAVYYCHYVHYASASTVLPAFGVDAWGQGTTVTVSS
VL: DIVMTQSPLSLPVTPGEPASISCQASQELVHMNRNTYLHWYQQKPGQAPRLLIYKVSNRFPGVPDRFSGSGSGTDFTLKISRVEAEDVGVYYCMQGTSVPFTFGQGTKLEIK
notes: Dual-Ig
B2: H183/L072 VL E27aS (antibody, name in Kabat numbering, V domains shown)
VH: B1 VH
VL: B1 VL with E28S, M94A
notes: Dual-Ig
B3: H183/L072 VL E27aR (antibody, name in Kabat numbering, V domains shown)
VH: B1 VH
VL: B1 VL with E28R, M94A
notes: Dual-Ig
B4: H183/L072 VL F55Q (antibody, name in Kabat numbering, V domains shown)
VH: B1 VH
VL: B1 VL with F60Q, M94A
notes: Dual-Ig
B5: H183/L072 VL E27aP (antibody, name in Kabat numbering, V domains shown)
VH: B1 VH
VL: B1 VL with E28P, M94A
notes: Dual-Ig
B6: H183/L072 VL A89R (antibody, name in Kabat numbering, V domains shown)
VH: B1 VH
VL: B1 VL with M94R
notes: Dual-Ig
B7: H183/L072 VL E27aQ (antibody, name in Kabat numbering, V domains shown)
VH: B1 VH
VL: B1 VL with E28Q, M94A
notes: Dual-Ig
B8: H183/L072 VL A89S (antibody, name in Kabat numbering, V domains shown)
VH: B1 VH
VL: B1 VL with M94S
notes: Dual-Ig
B9: H183/L072 VL F55E (antibody, name in Kabat numbering, V domains shown)
VH: B1 VH
VL: B1 VL with F60E, M94A
notes: Dual-Ig
B10: H183/L072 VL A89P (antibody, name in Kabat numbering, V domains shown)
VH: B1 VH
VL: B1 VL with M94P
notes: Dual-Ig
B11: H183/L072 VL E27aW (antibody, name in Kabat numbering, V domains shown)
VH: B1 VH
VL: B1 VL with E28W, M94A
notes: Dual-Ig
B12: H183/L072 VL F55D (antibody, name in Kabat numbering, V domains shown)
VH: B1 VH
VL: B1 VL with F60D, M94A
notes: Dual-Ig
B13: H183/L072 VL A89W (antibody, name in Kabat numbering, V domains shown)
VH: B1 VH
VL: B1 VL with M94W
notes: Dual-Ig
B14: H183/L072 VL A89T (antibody, name in Kabat numbering, V domains shown)
VH: B1 VH
VL: B1 VL with M94T
notes: Dual-Ig
B15: H183/L072 VL A89Q (antibody, name in Kabat numbering, V domains shown)
VH: B1 VH
VL: B1 VL with M94Q
notes: Dual-Ig
B16: H183/L072 VL F55I (antibody, name in Kabat numbering, V domains shown)
VH: B1 VH
VL: B1 VL with F60I, M94A
notes: Dual-Ig
B17: H183/L072 VL E27aN (antibody, name in Kabat numbering, V domains shown)
VH: B1 VH
VL: B1 VL with E28N, M94A
notes: Dual-Ig
B18: H183/L072 VL E27aF (antibody, name in Kabat numbering, V domains shown)
VH: B1 VH
VL: B1 VL with E28F, M94A
notes: Dual-Ig
B19: H183/L072 VL F55L (antibody, name in Kabat numbering, V domains shown)
VH: B1 VH
VL: B1 VL with F60L, M94A
notes: Dual-Ig
B20: H183/L072 VL F55R (antibody, name in Kabat numbering, V domains shown)
VH: B1 VH
VL: B1 VL with F60R, M94A
notes: Dual-Ig
B21: H183/L072 VL F55S (antibody, name in Kabat numbering, V domains shown)
VH: B1 VH
VL: B1 VL with F60S, M94A
notes: Dual-Ig
B22: H183/L072 VL A89N (antibody, name in Kabat numbering, V domains shown)
VH: B1 VH
VL: B1 VL with M94N
notes: Dual-Ig
B23: H183/L072 VL F55H (antibody, name in Kabat numbering, V domains shown)
VH: B1 VH
VL: B1 VL with F60H, M94A
notes: Dual-Ig
B24: H183/L072 VL A89V (antibody, name in Kabat numbering, V domains shown)
VH: B1 VH
VL: B1 VL with M94V
notes: Dual-Ig
B25: H183/L072 VL F55P (antibody, name in Kabat numbering, V domains shown)
VH: B1 VH
VL: B1 VL with F60P, M94A
notes: Dual-Ig
B26: H183/L072 VL F55T (antibody, name in Kabat numbering, V domains shown)
VH: B1 VH
VL: B1 VL with F60T, M94A
notes: Dual-Ig
B27: H183/L072 VL F55V (antibody, name in Kabat numbering, V domains shown)
VH: B1 VH
VL: B1 VL with F60V, M94A
notes: Dual-Ig
B28: H183/L072 VL E27aY (antibody, name in Kabat numbering, V domains shown)
VH: B1 VH
VL: B1 VL with E28Y, M94A
notes: Dual-Ig
B29: H183/L072 VL F55K (antibody, name in Kabat numbering, V domains shown)
VH: B1 VH
VL: B1 VL with F60K, M94A
notes: Dual-Ig
B30: H183/L072 VL E27aD (antibody, name in Kabat numbering, V domains shown)
VH: B1 VH
VL: B1 VL with E28D, M94A
notes: Dual-Ig
B31: H183/L072 VL E27aH (antibody, name in Kabat numbering, V domains shown)
VH: B1 VH
VL: B1 VL with E28H, M94A
notes: Dual-Ig
B32: H183/L072 VL E27aI (antibody, name in Kabat numbering, V domains shown)
VH: B1 VH
VL: B1 VL with E28I, M94A
notes: Dual-Ig
B33: H183/L072 VL E27aA (antibody, name in Kabat numbering, V domains shown)
VH: B1 VH
VL: B1 VL with E28A, M94A
notes: Dual-Ig
B34: H183/L072 VL F55M (antibody, name in Kabat numbering, V domains shown)
VH: B1 VH
VL: B1 VL with F60M, M94A
notes: Dual-Ig
B35: H183/L072 VL E27aK (antibody, name in Kabat numbering, V domains shown)
VH: B1 VH
VL: B1 VL with E28K, M94A
notes: Dual-Ig
B36: H183/L072 VL F55G (antibody, name in Kabat numbering, V domains shown)
VH: B1 VH
VL: B1 VL with F60G, M94A
notes: Dual-Ig
B37: H183/L072 VL E27aG (antibody, name in Kabat numbering, V domains shown)
VH: B1 VH
VL: B1 VL with E28G, M94A
notes: Dual-Ig
B38: H183/L072 VL F96D (antibody, name in Kabat numbering, V domains shown)
VH: B1 VH
VL: B1 VL with M94A, F101D
notes: Dual-Ig
B39: H183/L072 VL F96A (antibody, name in Kabat numbering, V domains shown)
VH: B1 VH
VL: B1 VL with M94A, F101A
notes: Dual-Ig
B40: H183/L072 VL E27aL (antibody, name in Kabat numbering, V domains shown)
VH: B1 VH
VL: B1 VL with E28L, M94A
notes: Dual-Ig
B41: H183/L072 VL E27aT (antibody, name in Kabat numbering, V domains shown)
VH: B1 VH
VL: B1 VL with E28T, M94A
notes: Dual-Ig
B42: H183/L072 VL F55N (antibody, name in Kabat numbering, V domains shown)
VH: B1 VH
VL: B1 VL with F60N, M94A
notes: Dual-Ig
B43: H183/L072 VL E27aM (antibody, name in Kabat numbering, V domains shown)
VH: B1 VH
VL: B1 VL with E28M, M94A
notes: Dual-Ig
B44: H183/L072 VL F55W (antibody, name in Kabat numbering, V domains shown)
VH: B1 VH
VL: B1 VL with F60W, M94A
notes: Dual-Ig

Numbering of substitutions follows the chain as printed.

T1 sequence (chain, as listed by the source limits assumed): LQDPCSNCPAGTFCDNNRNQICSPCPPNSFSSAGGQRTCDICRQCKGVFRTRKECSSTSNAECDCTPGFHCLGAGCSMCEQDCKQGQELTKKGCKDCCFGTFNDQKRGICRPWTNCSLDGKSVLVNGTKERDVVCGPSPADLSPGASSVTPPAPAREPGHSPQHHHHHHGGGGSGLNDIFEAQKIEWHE

This assay has as its target T1, Human CD137 ECD (human).
T1 construct: entry includes C-terminal His-tag and biotin acceptor peptide; also called human CD137 extracellular domain; 4-1BB
Briefly: Biacore SPR, vs parent H183/L072. On the technique in general: In SPR one partner is held on a chip, and binding of the other changes the refractive index at the surface.
As to B1, the “fold change of affinity” value was 0 fold.

Turning to B2, the “fold change of affinity” value is 0.6 fold.

B3: the “fold change of affinity” value came to 0.9 fold.

Regarding B4, the “fold change of affinity” value amounted to 0 fold.

For B5, the “fold change of affinity” value was found to be 0.8 fold.

As to B6, the “fold change of affinity” value worked out at 0 fold.

With B7, the “fold change of affinity” value amounted to 1.1 fold.

As for B8, the “fold change of affinity” value was found to be 0 fold.

For the molecule B9, the “fold change of affinity” value worked out at 0 fold.

For B10, the “fold change of affinity” value worked out at 0 fold.

As for B11, the “fold change of affinity” value worked out at 1 fold.

Consider B12, for which the “fold change of affinity” value was 0 fold.

As to B13, the “fold change of affinity” value was 0 fold.

On to B14, for which the “fold change of affinity” value was 0 fold.

In the case of B15, the “fold change of affinity” value was 0 fold.

Take B16: the “fold change of affinity” value amounted to 0 fold.

B17: the “fold change of affinity” value turned out to be 0.9 fold.

As to B18, the “fold change of affinity” value is 1.1 fold.

With B19, the “fold change of affinity” value was found to be 0.2 fold.

With B20, the “fold change of affinity” value is 0 fold.

For the molecule B21, the “fold change of affinity” value stood at 0 fold.

Turning to B22, the “fold change of affinity” value is 0 fold.

On to B23, for which the “fold change of affinity” value came out at 0 fold.

Turning to B24, the “fold change of affinity” value is 0 fold.

On to B25, for which the “fold change of affinity” value turned out to be 0 fold.

For the molecule B26, the “fold change of affinity” value was 0 fold.

Regarding B27, the “fold change of affinity” value was determined as 0 fold.

B28: the “fold change of affinity” value is 1.1 fold.

Consider B29, for which the “fold change of affinity” value turned out to be 0 fold.

As for B30, the “fold change of affinity” value was 1.1 fold.

As to B31, the “fold change of affinity” value was found to be 1.1 fold.

Turning to B32, the “fold change of affinity” value was determined as 0.8 fold.

Consider B33, for which the “fold change of affinity” value turned out to be 0.9 fold.

On to B34, for which the “fold change of affinity” value was determined as 0.2 fold.

Regarding B35, the “fold change of affinity” value is 0.9 fold.

B36: the “fold change of affinity” value stood at 0 fold.

For the molecule B37, the “fold change of affinity” value was found to be 1 fold.

As for B38, the “fold change of affinity” value is 0 fold.

For B39, the “fold change of affinity” value stood at 0 fold.

For the molecule B40, the “fold change of affinity” value was 0.9 fold.

In the case of B41, the “fold change of affinity” value was found to be 0.5 fold.

With B42, the “fold change of affinity” value was 0 fold.

On to B43, for which the “fold change of affinity” value was 0.9 fold.

B44: the “fold change of affinity” value was found to be 0.2 fold.

The values are drawn from patent US20210388087A1 (Chugai, published 2021).
